From patent US20240117054A1 (DRAGONFLY THERAPEUTICS, published 2024) come the findings set out here.

The assay deals with T1, human NKG2D (human, UniProt P26718 78-216, limits assumed).
T1 sequence (looked up): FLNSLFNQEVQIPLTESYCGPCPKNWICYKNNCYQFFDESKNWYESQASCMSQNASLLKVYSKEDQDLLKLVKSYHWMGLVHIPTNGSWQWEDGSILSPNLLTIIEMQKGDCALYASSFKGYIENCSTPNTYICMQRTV
As to the kind of experiment: assay not described.

B1: F3′-1158 dead-2D (bispecific antibody, human IgG1, kappa)
chain: DIVMTQSPDSLAVSLGERATINCRASESVDTYGSSFVHWYQQKPGQPPKLLIYLASNLESGVPDRFSGSGSGTDFTLTISSLQAEDVAVYYCQQNNEEPWTFGCGTKVEIKGGGGSGGGGSGGGGSGGGGSQVQLVQSGAEVKKPGASVKVSCKASGYTFTRYVMHWVRQAPGQCLEWMGFINPYNDDTKYNEKFKGRVTITRDTSASTAYMELSSLRSEDTAVYYCARWRQLGSLDSWGQGTTVTVSSGSDKTHTCPPCPAPELLGGPSVFLFPPKPKDTLMISRTPEVTCVVVDVSHEDPEVKFNWYVDGVEVHNAKTKPREEQYNSTYRVVSVLTVLHQDWLNGKEYKCKVSNKALPAPIEKTISKAKGQPREPRVYTLPPCRDELTKNQVSLTCLVKGFYPSDIAVEWESNGQPENNYKTTPPVLVSDGSFTLYSKLTVDKSRWQQGNVFSCSVMHEALHNHYTQKSLSLSPG
heavy: EVQLVESGGGLVKPGGSLRLSCAASGFTFSSYSMNWVRQAPGKGLEWVSSISSSSSYIYYADSVKGRFTISRDNAKNSLYLQMNSLRAEDTAVYYCARGAPIGAAAGWFDPWGQGTLVTVSSASTKGPSVFPLAPSSKSTSGGTAALGCLVKDYFPEPVTVSWNSGALTSGVHTFPAVLQSSGLYSLSSVVTVPSSSLGTQTYICNVNHKPSNTKVDKKVEPKSCDKTHTCPPCPAPELLGGPSVFLFPPKPKDTLMISRTPEVTCVVVDVSHEDPEVKFNWYVDGVEVHNAKTKPREEQYNSTYRVVSVLTVLHQDWLNGKEYKCKVSNKALPAPIEKTISKAKGQPREPQVCTLPPSRDELTENQVSLTCLVKGFYPSDIAVEWESNGQPENNYKTTPPVLDSDGSFFLYSWLTVDKSRWQQGNVFSCSVMHEALHNHYTQKSLSLSPG
light: DIQMTQSPSTLSASVGDRVTITCRASNSISSWLAWYQQKPGKAPKLLIYEASSTKSGVPSRFSGSGSGTEFTLTISSLQPDDFATYYCQQYDDLPTFGGGTKVEIKRTVAAPSVFIFPPSDEQLKSGTASVVCLLNNFYPREAKVQWKVDNALQSGNSQESVTEQDSKDSTYSLSSTLTLSKADYEKHKVYACEVTHQGLSSPVTKSFNRGEC
notes: also called first variant
B1: the binding result is “no binding”.
